Measurements from article PMC7367873, “Dissecting the sequence determinants for dephosphorylation by the catalytic subunits of phosphatases PP1 and PP2A” (Nature Communications, 2020).

Tests used:
[1] = test system: GFP-14-3-3β and its binding proteins; assay: GFP-14-3-3β co-IP with LC-MS/MS label-free quantification, untreated versus PP1c-treated; set-up: species or system human; settings: pairwise comparison PP1 vs untreated
[2] = test system: GFP-14-3-3β; assay: GFP-14-3-3β co-IP with LC-MS/MS, untreated GFP-14-3-3β versus GFP control (14-3-3 interactome); assay type: binding, human; settings: pairwise comparison untreated vs GFP

Molecule | Difference (log2), PP1 vs untreated [1] | Difference (log2), untreated vs GFP [2]
LIG3 (protein, UniProt P49916 43-1009, looked up) DNA ligase 3: LLHGHPLFLRRKPVLSFQGSHLRSRATYLVFLPGLHVGLCSGPCEMAEQRFCVDYAKRGTAGCKKCKEKIVKGVCRIGKVVPNPFSESGGDMKEWYHIKCMFEKLERARATTKKIEDLTELEGWEELEDNEKEQITQHIADLSSKAAGTPKKKAVVQAKLTTTGQVTSPVKGASFVTSTNPRKFSGFSAKPNNSGEAPSSPTPKRSLSSSKCDPRHKDCLLREFRKLCAMVADNPSYNTKTQIIQDFLRKGSAGDGFHGDVYLTVKLLLPGVIKTVYNLNDKQIVKLFSRIFNCNPDDMARDLEQGDVSETIRVFFEQSKSFPPAAKSLLTIQEVDEFLLRLSKLTKEDEQQQALQDIASRCTANDLKCIIRLIKHDLKMNSGAKHVLDALDPNAYEAFKASRNLQDVVERVLHNAQEVEKEPGQRRALSVQASLMTPVQPMLAEACKSVEYAMKKCPNGMFSEIKYDGERVQVHKNGDHFSYFSRSLKPVLPHKVAHFKDYIPQAFPGGHSMILDSEVLLIDNKTGKPLPFGTLGVHKKAAFQDANVCLFVFDCIYFNDVSLMDRPLCERRKFLHDNMVEIPNRIMFSEMKRVTKALDLADMITRVIQEGLEGLVLKDVKGTYEPGKRHWLKVKKDYLNEGAMADTADLVVLGAFYGQGSKGGMMSIFLMGCYDPGSQKWCTVTKCAGGHDDATLARLQNELDMVKISKDPSKIPSWLKVNKIYYPDFIVPDPKKAAVWEITGAEFSKSEAHTADGISIRFPRCTRIRDDKDWKSATNLPQLKELYQLSKEKADFTVVAGDEGSSTTGGSSEENKGPSGSAVSRKAPSKPSASTKKAEGKLSNSNSKDGNMQTAKPSAMKVGEKLATKSSPVKVGEKRKAADETLCQTKVLLDIFTGVRLYLPPSTPDFSRLRRYFVAFDGDLVQEFDMTSATHVLGSRDKNPAAQQVSPEWIWACIRKRRLVAPC | -0.06583 log2 | -0.6994 log2
TMOD3 (protein, UniProt Q9NYL9 1-352, looked up) Tropomodulin-3: MALPFRKDLEKYKDLDEDELLGNLSETELKQLETVLDDLDPENALLPAGFRQKNQTSKSTTGPFDREHLLSYLEKEALEHKDREDYVPYTGEKKGKIFIPKQKPVQTFTEEKVSLDPELEEALTSASDTELCDLAAILGMHNLITNTKFCNIMGSSNGVDQEHFSNVVKGEKILPVFDEPPNPTNVEESLKRTKENDAHLVEVNLNNIKNIPIPTLKDFAKALETNTHVKCFSLAATRSNDPVATAFAEMLKVNKTLKSLNVESNFITGVGILALIDALRDNETLAELKIDNQRQQLGTAVELEMAKMLEENTNILKFGYQFTQQGPRTRAANAITKNNDLVRKRRVEGDHQ | -0.1127 log2 | 0.4757 log2
TRIP13 (protein, UniProt Q15645 1-432, looked up) Pachytene checkpoint protein …: MDEAVGDLKQALPCVAESPTVHVEVHQRGSSTAKKEDINLSVRKLLNRHNIVFGDYTWTEFDEPFLTRNVQSVSIIDTELKVKDSQPIDLSACTVALHIFQLNEDGPSSENLEEETENIIAANHWVLPAAEFHGLWDSLVYDVEVKSHLLDYVMTTLLFSDKNVNSNLITWNRVVLLHGPPGTGKTSLCKALAQKLTIRLSSRYRYGQLIEINSHSLFSKWFSESGKLVTKMFQKIQDLIDDKDALVFVLIDEVESLTAARNACRAGTEPSDAIRVVNAVLTQIDQIKRHSNVVILTTSNITEKIDVAFVDRADIKQYIGPPSAAAIFKIYLSCLEELMKCQIIYPRQQLLTLRELEMIGFIENNVSKLSLLLNDISRKSEGLSGRVLRKLPFLAHALYVQAPTVTIEGFLQALSLAVDKQFEERKKLAAYI | -0.09713 log2 | 0.9602 log2
RBM14 (protein, UniProt Q96PK6 1-669, looked up) RNA-binding protein 14: MKIFVGNVDGADTTPEELAALFAPYGTVMSCAVMKQFAFVHMRENAGALRAIEALHGHELRPGRALVVEMSRPRPLNTWKIFVGNVSAACTSQELRSLFERRGRVIECDVVKDYAFVHMEKEADAKAAIAQLNGKEVKGKRINVELSTKGQKKGPGLAVQSGDKTKKPGAGDTAFPGTGGFSATFDYQQAFGNSTGGFDGQARQPTPPFFGRDRSPLRRSPPRASYVAPLTAQPATYRAQPSVSLGAAYRAQPSASLGVGYRTQPMTAQAASYRAQPSVSLGAPYRGQLASPSSQSAAASSLGPYGGAQPSASALSSYGGQAAAASSLNSYGAQGSSLASYGNQPSSYGAQAASSYGVRAAASSYNTQGAASSLGSYGAQAASYGAQSAASSLAYGAQAASYNAQPSASYNAQSAPYAAQQAASYSSQPAAYVAQPATAAAYASQPAAYAAQATTPMAGSYGAQPVVQTQLNSYGAQASMGLSGSYGAQSAAAATGSYGAAAAYGAQPSATLAAPYRTQSSASLAASYAAQQHPQAAASYRGQPGNAYDGAGQPSAAYLSMSQGAVANANSTPPPYERTRLSPPRASYDDPYKKAVAMSKRYGSDRRLAELSDYRRLSESQLSFRRSPTKSSLDYRRLPDAHSDYARYSGSYNDYLRAAQMHSGYQRRM | -0.1292 log2 | 0.5797 log2
PATL1 (protein, UniProt Q86TB9 1-770, looked up) Protein PAT1 homolog 1: MFRYESLEDCPLDEDEDAFQGLGEEDEEIDQFNDDTFGSGAVDDDWQEAHERLAELEEKLPVAVNEQTGNGERDEMDLLGDHEENLAERLSKMVIENELEDPAIMRAVQTRPVLQPQPGSLNSSIWDGSEVLRRIRGPLLAQEMPTVSVLEYALPQRPPQGPEDDRDLSERALPRRSTSPIIGSPPVRAVPIGTPPKQMAVPSFTQQILCPKPVHVRPPMPPRYPAPYGERMSPNQLCSVPNSSLLGHPFPPSVPPVLSPLQRAQLLGGAQLQPGRMSPSQFARVPGFVGSPLAAMNPKLLQGRVGQMLPPAPGFRAFFSAPPSATPPPQQHPPGPGPHLQNLRSQAPMFRPDTTHLHPQHRRLLHQRQQQNRSQHRNLNGAGDRGSHRSSHQDHLRKDPYANLMLQREKDWVSKIQMMQLQSTDPYLDDFYYQNYFEKLEKLSAAEEIQGDGPKKERTKLITPQVAKLEHAYKPVQFEGSLGKLTVSSVNNPRKMIDAVVTSRSEDDETKEKQVRDKRRKTLVIIEKTYSLLLDVEDYERRYLLSLEEERPALMDDRKHKICSMYDNLRGKLPGQERPSDDHFVQIMCIRKGKRMVARILPFLSTEQAADILMTTARNLPFLIKKDAQDEVLPCLLSPFSLLLYHLPSVSITSLLRQLMNLPQSAATPALSNPHLTAVLQNKFGLSLLLILLSRGEDLQSSDPATESTQNNQWTEVMFMATRELLRIPQAALAKPISIPTNLVSLFSRYVDRQKLNLLETKLQLVQGIR | -0.05274 log2 | -0.4586 log2
HNRNPA1;HNRNPA1L2 (protein, UniProt P09651 1-372, looked up) Heterogeneous nuclear …: MSKSESPKEPEQLRKLFIGGLSFETTDESLRSHFEQWGTLTDCVVMRDPNTKRSRGFGFVTYATVEEVDAAMNARPHKVDGRVVEPKRAVSREDSQRPGAHLTVKKIFVGGIKEDTEEHHLRDYFEQYGKIEVIEIMTDRGSGKKRGFAFVTFDDHDSVDKIVIQKYHTVNGHNCEVRKALSKQEMASASSSQRGRSGSGNFGGGRGGGFGGNDNFGRGGNFSGRGGFGGSRGGGGYGGSGDGYNGFGNDGGYGGGGPGYSGGSRGYGSGGQGYGNQGSGYGGSGSYDSYNNGGGGGFGGGSGSNFGGGGSYNDFGNYNNQSSNFGPMKGGNFGGRSSGPYGGGGQYFAKPRNQGGYGGSSSSSSYGSGRRF | -0.1001 log2 | 0.6063 log2

Further lines, with some results ahead:

Difference (log2), PP1 vs untreated [1] | Molecule | Difference (log2), untreated vs GFP [2]
-0.09631 log2 | EIF2AK2 (protein, UniProt P19525 2-551, looked up) Interferon-induced, …: AGDLSAGFFMEELNTYRQKQGVVLKYQELPNSGPPHDRRFTFQVIIDGREFPEGEGRSKKEAKNAAAKLAVEILNKEKKAVSPLLLTTTNSSEGLSMGNYIGLINRIAQKKRLTVNYEQCASGVHGPEGFHYKCKMGQKEYSIGTGSTKQEAKQLAAKLAYLQILSEETSVKSDYLSSGSFATTCESQSNSLVTSTLASESSSEGDFSADTSEINSNSDSLNSSSLLMNGLRNNQRKAKRSLAPRFDLPDMKETKYTVDKRFGMDFKEIELIGSGGFGQVFKAKHRIDGKTYVIKRVKYNNEKAEREVKALAKLDHVNIVHYNGCWDGFDYDPETSDDSLESSDYDPENSKNSSRSKTKCLFIQMEFCDKGTLEQWIEKRRGEKLDKVLALELFEQITKGVDYIHSKKLIHRDLKPSNIFLVDTKQVKIGDFGLVTSLKNDGKRTRSKGTLRYMSPEQISSQDYGKEVDLYALGLILAELLHVCDTAFETSKFFTDLRDGIISDIFDKKEKTLLQKLLSKKPEDRPNTSEILRTLTVWKKSPEKNERHTC | 2.168 log2
-0.1195 log2 | GNB2 (protein, UniProt P62879 2-340, looked up) Guanine nucleotide-binding …: SELEQLRQEAEQLRNQIRDARKACGDSTLTQITAGLDPVGRIQMRTRRTLRGHLAKIYAMHWGTDSRLLVSASQDGKLIIWDSYTTNKVHAIPLRSSWVMTCAYAPSGNFVACGGLDNICSIYSLKTREGNVRVSRELPGHTGYLSCCRFLDDNQIITSSGDTTCALWDIETGQQTVGFAGHSGDVMSLSLAPDGRTFVSGACDASIKLWDVRDSMCRQTFIGHESDINAVAFFPNGYAFTTGSDDATCRLFDLRADQELLMYSHDNIICGITSVAFSRSGRLLLAGYDDFNCNIWDAMKGDRAGVLAGHDNRVSCLGVTDDGMAVATGSWDSFLKIWN | -1.0406 log2
-0.08165 log2 | CSNK1A1 (protein, UniProt P48729 2-337, looked up) Casein kinase I isoform alpha: ASSSGSKAEFIVGGKYKLVRKIGSGSFGDIYLAINITNGEEVAVKLESQKARHPQLLYESKLYKILQGGVGIPHIRWYGQEKDYNVLVMDLLGPSLEDLFNFCSRRFTMKTVLMLADQMISRIEYVHTKNFIHRDIKPDNFLMGIGRHCNKLFLIDFGLAKKYRDNRTRQHIPYREDKNLTGTARYASINAHLGIEQSRRDDMESLGYVLMYFNRTSLPWQGLKAATKKQKYEKISEKKMSTPVEVLCKGFPAEFAMYLNYCRGLRFEEAPDYMYLRQLFRILFRTLNHQYDYTFDWTMLKQKAAQQAASSSGQGQQAQTPTGKQTDKTKSNMKGF | 0.6201 log2
